This note sets out measurements from article PMC3664818 (Nucleic Acids Research, 2013).

The test has as its target T1, (His)6-Lif1-K301R (S. cerevisiae, UniProt P53150 1-421, K301R).
T1 sequence (looked up): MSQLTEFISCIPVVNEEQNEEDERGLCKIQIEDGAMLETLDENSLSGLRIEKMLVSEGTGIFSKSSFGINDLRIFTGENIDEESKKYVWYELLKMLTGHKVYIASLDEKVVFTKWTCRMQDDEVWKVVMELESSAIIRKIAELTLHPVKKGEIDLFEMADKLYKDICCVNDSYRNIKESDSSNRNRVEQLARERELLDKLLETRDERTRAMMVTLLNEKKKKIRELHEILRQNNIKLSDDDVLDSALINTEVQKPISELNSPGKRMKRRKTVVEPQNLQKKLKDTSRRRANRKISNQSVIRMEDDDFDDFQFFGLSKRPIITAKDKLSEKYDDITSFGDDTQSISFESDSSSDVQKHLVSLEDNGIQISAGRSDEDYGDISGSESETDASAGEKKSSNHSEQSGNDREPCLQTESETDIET
The test is described as follows: pull-down.

B1: MBP-Nej1 (natural protein, S. cerevisiae, UniProt Q06148 1-342, looked up)
chain: MDSELKGQQLSDAEWCVKKINGEGNCLLLFLPMSSPTTIVMIVLVSLERLVPYVFKLSQTQLSQQCQSQGFTDSISLNLIKLKLMDILQAPQEINQIGLVDSNLVFSFDVSADITVSINSVPSHVTKDMFYMILQSLCMLLLKLVNLSTQYHYVQRDILNEKQKCLDFLLISLRDLDGGSKVISQWAPENSKNYESLQQCTDDDIIKKLLHKGKFQHQEFLADSLKTLLSLRNKFQDVSRFEESGELNKKERVRFPAVNHFYNDDFELQADPTNEARPNSRGKIKPKTDFKPKSRESSTSSQLRLENFSESEATPEKTKSSSSLVEEYPQKKRKFGKVRIKN
With B1, the binding result was “binds”.
